The data set in a line: In vitro specific enzyme activity of idursulfase conjugate (4MU fluorescence). The settings on record: substrate 4MU-α-idopyraA-2, 37° C. 4 hours, then α-iduronidase 37° C. 24 hours; FIG. 5. The format is biochemical. As for the experimental part: To examine the presence of any change in specific activity of idursulfase according to the preparation of idursulfase-10 K PEG-Fc-BTP22 conjugate, an in vitro experiment for specific activity of enzymes was performed, 4-Methylumbelliferyl α-L-idopyranosiduronic acid-2-sulfate sodium salt (4MU-α-idopyraA-2), which is known as an enzyme substrate for idursulfase, was reacted with idursulfase β and IDS-Fc-BTP22 at 37° C. for 4 hours, and then, reacted with α-iduronidase, which is a secondary reaction enzyme, at 37° C. for 24 hours. The enzyme activity of 4-methylumbelliferone (4 MU), the final product, was measured by the measurement of the fluorescence of the corresponding substance (FIG. 5).
In particular, the values of enzyme activity were calculated in terms of specific activity per converted rate of weight (μg).

B1: idursulfase (protein, UniProt P22304 34-455; P22304 456-550, looked up)
Iduronate 2-sulfatase 42 kDa …: TDALNVLLIIVDDLRPSLGCYGDKLVRSPNIDQLASHSLLFQNAFAQQAVCAPSRVSFLTGRRPDTTRLYDFNSYWRVHAGNFSTIPQYFKENGYVTMSVGKVFHPGISSNHTDDSPYSWSFPPYHPSSEKYENTKTCRGPDGELHANLLCPVDVLDVPEGTLPDKQSTEQAIQLLEKMKTSASPFFLAVGYHKPHIPFRYPKEFQKLYPLENITLAPDPEVPDGLPPVAYNPWMDIRQREDVQALNISVPYGPIPVDFQRKIRQSYFASVSYLDTQVGRLLSALDDLQLANSTIIAFTSDHGWALGEHGEWAKYSNFDVATHVPLIFYVPGRTASLPEAGEKLFPYLDPFDSASQLMEPGRQSMDLVELVSLFPTLAGLAGLQVPPRCPVPSFHVELCREGKNLLKHFRFRDLEEDPYLPG
Iduronate 2-sulfatase 14 kDa …: NPRELIAYSQYPRPSDIPQWNSDKPSLKDIKIMGYSIRTIDYRYTVWVGFNPDEFLANFSDIHAGELYFVDSDPLQDHNMYNDSQGGDLFQLLMP
notes: purified type of iduronate-2-sulfatase (Shire, Ireland), approximately 72 kDa
For the molecule B1, the enzyme activity (specific activity per weight of idursulfase part) is 23.4 ± 1.94 nmol/min/µg.

Values taken from patent US20190352335A1, “BRAIN TARGETING LONG-ACTING PROTEIN CONJUGATE” (HANMI PHARM. CO., LTD., priority 2016, published 2019).
